What is called Kd is the equilibrium constant for the complex coming apart. A high value points to weaker binding. A word on the kon: it is a measure of how fast the partners come together. The low end stands for slow association, the high end for fast association.

From patent US20250099622A1, “COMPOSITIONS AND METHODS FOR EXPRESSING THERAPEUTICS” (priority 2022, published 2025) come the findings set out here.

The target in one test is T1, Human NPR-B (Homo sapiens, UniProt P20594).
T1 construct: purchased R&D system
T1 sequence (P20594 23-458 limits assumed): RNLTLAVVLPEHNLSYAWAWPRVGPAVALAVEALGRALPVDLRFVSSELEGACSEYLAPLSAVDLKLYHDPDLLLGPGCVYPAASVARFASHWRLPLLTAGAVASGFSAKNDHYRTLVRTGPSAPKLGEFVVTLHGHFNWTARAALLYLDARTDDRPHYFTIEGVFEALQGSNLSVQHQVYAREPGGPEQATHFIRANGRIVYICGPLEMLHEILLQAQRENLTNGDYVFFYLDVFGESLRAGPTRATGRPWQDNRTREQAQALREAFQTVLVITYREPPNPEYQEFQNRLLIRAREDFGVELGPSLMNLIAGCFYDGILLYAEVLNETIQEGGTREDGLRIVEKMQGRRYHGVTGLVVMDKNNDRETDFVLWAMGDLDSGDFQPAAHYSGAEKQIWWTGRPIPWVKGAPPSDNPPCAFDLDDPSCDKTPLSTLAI
The experiment in a line: Biacore SPR kinetic affinity binding to immobilized NPR-B. On the procedure: The biological function of these purified protein was assayed for their stimulation of production of cGMP, using NPR-B receptor positive cell line, NIH/3T3 and NPR-B negative cell line HEK293 cells. The determination of cGMP was assay by ELISA using commercial CNP as standard curves. […] Surface preparation. NBR-B was immobilized at different levels in three flow cells via standard amine coupling, leaving Fc 1 unmodified to serve as a reference. All surface plasmon resonance (SPR) analysis was performed on a BIAcore 3000 system using series CM5 sensor chips. Data processing and analysis were performed using BIAevaluation software. All sensorgrams were double referenced by subtracting the response on a reference flow cell and a blank sample. Human NPR-B (R&D system) was covalently attached to a CM5 chip via amine coupling. A surface density of 6600 RU was used for measurements with natriuretic peptides Sequential injections of CNP (0.5-8 nM) were performed at a flow rate of […] (300 s for each), followed by a dissociation time of 900 s. […] Kinetic parameters were calculated assuming a simple 1:1 (Langmuir) binding. […] All SPR analysis was performed on a BIAcore 3000 system using series CM5 sensor chips. Data processing and analysis were performed using BIAevaluation software. All sensorgrams were double referenced by subtracting the response on a reference flow cell and a blank sample. Human NPR-B (R&D system) was covalently attached to a CM5 chip via amine coupling. A surface density of 3100 RU was used for measurements with natriuretic peptides Sequential injections of AMI263 (FC4-CNP) (0.125-2 nM) were performed at a flow rate of […] (300 s for each), followed by a dissociation time of 900 s. […] Kinetic parameters were calculated assuming a simple 1:1 (Langmuir) binding. […] All SPR analysis was performed on a BIAcore 3000 system using series CM5 sensor chips. Data processing and analysis were performed using BIAevaluation software. All sensorgrams were double referenced by subtracting the response on a reference flow cell and a blank sample. Human NPR-B (R&D system) was covalently attached to a CM5 chip via amine coupling. […] Kinetic parameters were calculated assuming a simple 1:1 (Langmuir) binding. […] All SPR analysis was performed on a BIAcore 3000 system using series CM5 sensor chips. Data processing and analysis were performed using BIAevaluation software. All sensorgrams were double referenced by subtracting the response on a reference flow cell and a blank sample. Human NPR-B (R&D system) was covalently attached to a CM5 chip via amine coupling. A surface density of 3100 RU was used for measurements with natriuretic peptides Sequential injections of AMI263 (FC4-CNP) (0.5-300 nM) were performed at a flow rate of […] (300 s for each), followed by a dissociation time of 900 s. […] Kinetic parameters were calculated assuming a simple 1:1 (Langmuir) binding. […] All SPR analysis was performed on a BIAcore 3000 system using series CM5 sensor chips. Data processing and analysis were performed using BIAevaluation software. All sensorgrams were double referenced by subtracting the response on a reference flow cell and a blank sample. Human NPR-B (R&D system) was covalently attached to a CM5 chip via amine coupling.

The subject of a further test is HEK293 cells. The experiment in a line: CNP-Fc ELISA of supernatant of AAV-transduced HEK293 cells. The format is cell-based, Human. As to conditions: CNP-Fc in HEK293 supernatant 5 days after transduction with 100,000 MOI of AAV2 N54 vector. Here is the method:
C-type natriuretic peptide (CNP) has two isoforms, CNP-22 and CNP-53. Example 2 illustrates that CNP-36 fused with Fe increased the half-life of the CNP and also facilitated in purification and ELISA detection when compared to native (unfused) CNP. Transduction and CNP-Fc expression experiments were performed with three AAV vectors (AMI061, AMI087 and AMI0488). FIG. 1A is the pictorial depiction of the three vectors. FIGS. 1B-F illustrate additional vectors that can encode the CNP or the CNP fusion protein. Enzyme-linked immunoassay (ELISA) was developed for quantifying CNP-Fc fusion proteins in cell culture supernatants. The ELISA assay was used to quantify CNP-Fc expressed in HEK293 cells, human chondrocytes (HCH) cells, and human skeletal muscle cells (hSkMC) upon transduction with one of the three AAV constructs described herein.
Buffer and substrate. Coating buffer: 3.7 g sodium bicarbonate, 0.64 g sodium carbonate in 1 L of Milli Q water, pH 9.6. Stored at RT; Blocking buffer: Commercial Casein blocking buffer in PBS+ added 0.1% Tween20. Stored at 4° C.; Standard diluent: same as blocking buffer; Wash buffer: 1×PBS with 0.1% tween 20 (30 days expiry from date of manufacture); Coating Antibody (Ab): Human CNP Antibody (monoclonal), coating concentration was 2 μg/mL; Detection Ab: Goat pAb anti-human Fc. Diluted up to 1:20,000 final dilution in well. Stored at 4° C.; HRP: Streptavidin-HRP stock of 1 mg/mL, diluted up to 1:10,000. Stored at 4° C.; Substrate: TMB. Stored at 4° C.; and Stop solution: 2 N HCl. Stored at ambient temperature.
• 1. Coat 96-well plate with 2 μg/mL anti-CNP antibody final concentration per well in the coating buffer with a 50 μL volume and cover the plate with sealing cover. Put the plate at 4° C. overnight. • 2. Next day, remove the plate, wash thrice with wash buffer and tap the plate on the paper towel to remove excess solution. • 3. Add 300 μL of blocking buffer to each well using multichannel pipette. […] Add 50 μL stop solution and read plate at 450 nm with 600 as reference within 15 min. […]
(In general: In an ELISA, binding on a coated surface is turned into a signal by an enzyme label.)

For test [1], the target named is T2, NPR-B on NIH/3T3 cells (NPR-B receptor positive cell line) (UniProt Q6VVW5 17-1047, limits assumed).
T2 sequence (looked up): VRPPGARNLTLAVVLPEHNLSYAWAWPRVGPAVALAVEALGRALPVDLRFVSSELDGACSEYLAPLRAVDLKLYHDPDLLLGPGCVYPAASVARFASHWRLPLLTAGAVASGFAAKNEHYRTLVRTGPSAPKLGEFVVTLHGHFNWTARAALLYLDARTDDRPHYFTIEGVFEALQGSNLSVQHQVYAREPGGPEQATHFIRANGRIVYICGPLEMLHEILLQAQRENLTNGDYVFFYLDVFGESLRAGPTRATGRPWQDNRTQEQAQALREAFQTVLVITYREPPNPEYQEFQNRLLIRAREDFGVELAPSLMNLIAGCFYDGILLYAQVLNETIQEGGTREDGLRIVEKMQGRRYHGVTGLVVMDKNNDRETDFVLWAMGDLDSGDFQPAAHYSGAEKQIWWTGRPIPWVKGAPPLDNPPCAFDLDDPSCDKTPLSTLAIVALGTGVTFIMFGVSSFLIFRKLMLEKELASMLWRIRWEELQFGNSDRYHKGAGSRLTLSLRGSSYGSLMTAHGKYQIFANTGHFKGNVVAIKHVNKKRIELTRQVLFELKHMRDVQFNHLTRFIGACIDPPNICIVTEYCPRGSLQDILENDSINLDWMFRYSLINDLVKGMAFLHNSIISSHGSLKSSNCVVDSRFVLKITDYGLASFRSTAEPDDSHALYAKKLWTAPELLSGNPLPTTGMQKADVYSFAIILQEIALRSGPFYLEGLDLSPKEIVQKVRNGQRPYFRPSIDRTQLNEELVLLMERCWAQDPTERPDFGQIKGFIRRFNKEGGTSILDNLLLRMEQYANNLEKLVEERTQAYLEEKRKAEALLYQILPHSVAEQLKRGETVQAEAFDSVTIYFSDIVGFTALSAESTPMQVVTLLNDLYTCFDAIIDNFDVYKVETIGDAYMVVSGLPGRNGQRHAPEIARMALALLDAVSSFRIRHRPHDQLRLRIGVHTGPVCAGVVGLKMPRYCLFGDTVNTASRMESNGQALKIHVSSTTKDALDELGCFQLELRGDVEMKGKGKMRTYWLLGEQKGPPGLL
The experiment in a line: cell-based or functional assay.

The target in test [2] is T2, NPR-B on NIH/3T3 cells (NPR-B receptor …). Briefly: cell-based or functional assay. The source holds these as a separate data set.
Test [3] has as its target T3, Human NPR-B (R&D system) (human, UniProt P20594 23-458, limits assumed).
T3 construct: Bought protein immobilised on the Biacore chip; also called NBR-B; natriuretic peptide receptor B
T3 sequence (looked up): T1 sequence (P20594 23-458 limits assumed)
Briefly: SPR (Biacore 3000), human NPR-B amine-coupled to CM5 chip, single-cycle kinetics, 1:1 Langmuir fit. Here is the method: Kinetic parameters were calculated assuming a simple 1:1 (Langmuir) binding. […] All SPR analysis was performed on a BIAcore 3000 system using series CM5 sensor chips. Data processing and analysis were performed using BIAevaluation software. All sensorgrams were double referenced by subtracting the response on a reference flow cell and a blank sample. Human NPR-B (R&D system) was covalently attached to a CM5 chip via amine coupling. […] Kinetic parameters were calculated assuming a simple 1:1 (Langmuir) binding. […] All SPR analysis was performed on a BIAcore 3000 system using series CM5 sensor chips. Data processing and analysis were performed using BIAevaluation software. All sensorgrams were double referenced by subtracting the response on a reference flow cell and a blank sample. Human NPR-B (R&D system) was covalently attached to a CM5 chip via amine coupling. […] Kinetic parameters were calculated assuming a simple 1:1 (Langmuir) binding. […] All SPR analysis was performed on a BIAcore 3000 system using series CM5 sensor chips. Data processing and analysis were performed using BIAevaluation software. All sensorgrams were double referenced by subtracting the response on a reference flow cell and a blank sample. Human NPR-B (R&D system) was covalently attached to a CM5 chip via amine coupling.

The target in test [4] is T3, Human NPR-B (R&D system). The experiment in a line: SPR (Biacore 3000), FIG. 7C, single-cycle kinetics, NPR-B at 6600 RU on CM5, CNP 0.5-8 nM; differs from Table 32. On the procedure: Kinetic parameters were calculated assuming a simple 1:1 (Langmuir) binding. […] All SPR analysis was performed on a BIAcore 3000 system using series CM5 sensor chips. Data processing and analysis were performed using BIAevaluation software. All sensorgrams were double referenced by subtracting the response on a reference flow cell and a blank sample. Human NPR-B (R&D system) was covalently attached to a CM5 chip via amine coupling. […] Kinetic parameters were calculated assuming a simple 1:1 (Langmuir) binding. […] All SPR analysis was performed on a BIAcore 3000 system using series CM5 sensor chips. Data processing and analysis were performed using BIAevaluation software. All sensorgrams were double referenced by subtracting the response on a reference flow cell and a blank sample. Human NPR-B (R&D system) was covalently attached to a CM5 chip via amine coupling. […] Kinetic parameters were calculated assuming a simple 1:1 (Langmuir) binding. […] All SPR analysis was performed on a BIAcore 3000 system using series CM5 sensor chips.
A general note: In SPR one partner is held on a chip, and binding of the other changes the refractive index at the surface.

In the case of “AMI087: purified CNP-Fc fusion protein CNP36-(G4S)4-Fc1, SEQ ID NO: 132”, in the test with Human NPR-B ((FIG. 7C-7I)), the ka is 3.65E3 and the kd was 1.53E-3. In the test with Human NPR-B (Table 32 summary of affinity), the ka was 3.65E+03 and the kd is on record as 1.53E−03. Also, the “Concentration” value in the test with HEK293 cells amounted to 33 µg/mL.

With GLSKGCFGLKLDRIGSMSGLGC (also called C-type natriuretic peptide) [CNP-22], the “EC50 (cGMP production, table 'EC50 NIH3T3 cells', row CNP-22)” value in test [1] was 11.8 nM. In test [2], the “EC50 (cGMP production, drawn table, row CNP-22)” value turned out to be 11.8 nM and the “EC50 (read off the curve), cGMP production” value is around 10 nM. Moreover, the Kd in the test with Human NPR-B (R&D system) [3] was determined as 0.0346 nM. In addition, in the test with Human NPR-B (R&D system) [4], binding was characterised by a dissociation constant (Kd) of 0.0363 nM and the kon was 1.31e+07 M⁻¹ s⁻¹.
